Literature values in patent US5593962A, “Fibrillated calcitonin pharmaceutical compositions” (Ciba-Geigy Corporation, priority 1991, dated 1997).

Columns and labels:
[1] = physiological saline solutions or buffers

human calcitonin
generation of neutralizing antibodies (after prolonged administration): not generating neutralizing antibodies
potency relative to salmon calcitonin (in vivo): less potent
stability in solution [1]: not stable
